The DeepSol protein solubility set

assay: soluble on expression in E. coli; label from the status in PepcDB or PDB records

| Sequence | soluble on expression in E. coli |
| --- | --- |
| MSLNVLIIGAGAVGLCLAAKLSNVADVFAVTRERNAKIIRESGFKMTGIWGEGTFNFEASENVPERDFDYIIISSKGLATKSICEQFKDVINGKNVISMQNGVGNEEIILRYTDKVIGGTIITGFEWKGDAKVHVSVEGGPMTVGRFPNGTDKEVTDFVKLIKSSGIPVNETENIQGAIWSKTIYNCALNPLGAVMNVPYGELSNEHSWNIIKNIVSEIFEITSKKGVILPWKTSEEYLKYLKEFQLPNTAAHHSSMLQDISKGNITEIDFLNGAVVTIAKEFGIKTPYNKFITEQIKFLENLKSKKEGHHHHHH | soluble |
| AIAVQKLENIPALVHLKEKNIISIRVFLQGRSIVGIQLNYNDNEDGQVYGSTAGKEMVARLSKEEHIIGVEGTYNPSALTQIIFTTNQPRQLMVGYHVGNYQYSSYPDDPSLVLKGACVSWRAGGIKSILFLWGSENSSCVKYGHSG | soluble |
| MNTESSPFVFNVGTLVRGSAVPASVQQTGPSPVRIGPAMIAIPENGDVTVNATITPLGDALMVDADVSAELSGECVRCLQHMAPRAQFHVNEVFALTEDFITGDDGDGEDDDVTVITGDTVDILQAVIDEAGMSLPFNPQCEGGCVQSDSDVPEPDGIAGETELVDPRWAGLEKFL | not soluble |
| MRVLTKKTEEEIRRDFFGPVQEAACKPYLLDVDPRKSWCELSELRLSTLICEFKPIGINKHFHLIGIIERMGKVFDNENAQVEIFLSEENRVAFRNQQRDLLMGGRPERTSYPPKYLCRPSLEMIEDKLKKWFGLRFCEENESYPSEFNSVTDYELPEYIMAEVRELSDKRAERERNTDNGIVESEKKSTIPRRLTEEDENYDIQT | not soluble |
| MGSDKIHHHHHHMNQPDAYLWEQHIPGGCHWSGILRRGTTLRMTDVSGGANASVLFFNQEEKLERYNMADTLKSQHTFRLTKGHACHSDMGRIFCCITADSAGWHDTVCGLSDADLIRRKYGTARYQEHRNQMFRNGLDGMLIELGKWGLGMRDVVSNINFFSKVTANSAGELTFHSGNSKAGDHVDLSFEMDTLVVLSAAPHPLDPSTTYQPGAVNLAAFATPSSAIAECAHISENQRARQNTECLYACHGGAA | not soluble |
| MPSETPQAEVGPTGCPHRSGPHSAKGSLEKGSPEDKEAKEPLWIRPDAPSRCTWQLGRPASESPHHHTPPAKSPKILPDILKKIGDTPMVRINKIGKKFGLKCELLAKCEFFNAGGSVKDRISLRMIEDAERDGTLKPGDTIIEPTSGNTGIGLALAAAVRGYRCIIVMPEKMSSEKVDVLRALGAEIVRTPTNARFDSPESHVGVAWRLKNEIPNSHILDQYRNASNPLAHYDTTADEILQQCDGKLDMLVASVGTGGTITGIARKLKEKCPGCRIIGVDPEGSILAEPEELNQTEQTTYEVEGIGYDFIPTVLDRTVVDKWFKSNDEEAFTFARMLIAQEGLLCGGSAGSTVAVAVKAAQELQEGQRCVVILPDSVRNYMTKFLSDRWMLQKGFLKEEDLTEKKPWWWHLRVQELGLSAPLTVLPTITCGHTIEILREKGFDQAPVVDEAGVILGMVTLGNMLSSLLAGKVQPSDQVGKVIYKQFKQIRLTDTLGRLSHILEMDHFALVVHEQIQYHSTGKSSQRQMVFGVVTAIDLLNFVAAQERDQK | soluble |
| MGSDKIHHHHHHMEKVKAILFDKDGTLMDFHSIWIKVAEELVAEYIKLYQLPQSMQPTLLKEIGVDGVFVHPRSAIAAGTSLDVAKGLCKYITSSKEEEMHEWVSEKLFALMYEHRSYMKMTADLPRILQSLKDRGFILGVVTADDFAPTELFLKQYQLETFFDYVVASDTFAAQKPDKRIIESFCERFHLKACEVAVVGDTPTDLYLAKNGDCYAIGVLSGTGNRQTLEPLADLVVQSVGDFISHSGEFVWEKGKSNV | not soluble |
| AHHHHHHGSKIPDDVRKDIPLTQEVIYFDNTATSLTPKPVIEAMDEYYLKYRANVHRGVHRLSQMATQKYEESRKVVADFINAKFEEIVFTKNTSESLNLVALGLEHTFKKGDKIVTTPYEHHSNLLPWQRLAKKLGLKLEFIEGDDEGNLDLSDAEKKIKGAKLVAVQHVSNALGVIHEVEELGRMAKEEGAIFVVDAAQSVGHMEVDVKKLNADFLAFSGHKGPMGPTGIGVLFISEEYFDVFDPPLIGGGTIEDVDLCCYKLTEPPERFEAGTPNIGGAIGLAAGIKYIEKIGIEKIEKQERKLVKRTTEGLDELEIPWYGPRNLDKHAGVVSFNVPPLHPHDVAAVLDEHKIMVRSGHHCALPVMKKLGINGTVRASFHVYNSVEEVEIFLGVLEDLVRKIRGAL | soluble |
| MGSDKIHHHHHHMNATQTQMRREINEIPDAVERLLTEGAGAVAATAADIRDLQPSYLLSVARGSSDHASTYLKYASELLLGLPMASVGPSVKSIYGVDLHCKGALSISVSQSGKSPDIVQLTSAFRDKGAYTVAITNDAGSPLAETAAAVLPIHAGPELSVAATKTFVTSLVAGLWVLAEVKQDAALLEAILRLPGHLAKAKDCDWSAAIEAIDGQSLYTLGRGPSWAISNEAALKFKETCQIHAESYSAAEVLHGPVSIVGENFPVIAFAAADAAEESVGEMVAALGDKGARVFATTHKAKGAEVLPHVRTDHWITDPIASIVSFYGMVEAVAARRGVNPDAPRHLNKVTETV | not soluble |
| MSLSRKWLNKVKWDDHGLVPVIVQEQGSNDVLMFAFMNREALQKTVETGEAVFWSRSRKRLWHKGEESGHIQQVHEIRLDCDEDVVLLRVTQVGGIACHTGRHACFFQKFEGTAEDGDWHTVEPVLKNPDDIYAGKPGHNHEEGHHHHHH | not soluble |
| MKCVEVHVIDSSAIFQRKAVYRNMVTVPEVVAEILDEASALYFSVKNFRVEEASPESVEEVKEAARKTGDIHKLSDTDIKVLAKALDEIKKGNEVVLVTDDYAIQNVAMSLGIRFDGILHRQISKEFKWVKVCRGCGRRIESEICPVCGSEAIIRRVKNDKNRNSG | not soluble |
| MMKLRIEIDGNLEETEIVIKTPTLTDEIADLQRLLQESKAPRLTFYKGTGEYYLDLSEILFFETEGSKIYAHNQKEAYEVRLKLYELESILPRYFNRVSKSTIANIRQIYSVDKSFSGTGTISFYQTHKEVHVSRHYQSLLKENLRNMR | not soluble |
| MGSDKIHHHHHHMLLGSFQSVLEARNRDEFRGEVVRFAKRLGFETVSAITVVDHPVGDTEFVAIDNAPDAYKDAIEDPKAGQLDPVMQHCKRQSVPIIWDQSTYVSAGQGSMWEAQARFGFRTGICLALHMPEGRHFVIGVDRDQALPKDRGEVTRLVADLQLFAVHAQDTAMRVLVPERLQLERPKLTPRELDSLRWTMDGKTAWEVGSIMGISERTAVLHINNAMHKLACTNKHQAVLKALRLGLLR | not soluble |
| MSLRPVKLAALLPLTGPFAFAGNAGREGFVDGVDYVNEVLGGIAGRKLELIVEDTGYDVAKGTAAFNRVLSRERPDELLFVYGDSTGLSKALAPEIARIGLPYSATSFANELADPEKYPTIFVFGPTYNDMMEALLRQIRLQKGKARIALVYSNTEFGRDPIPYVKERAKALGMEVVHEEVTPPAFTDATPVVLNLRRANPDFVLLQGYALSAEPLILRAAREQGLRAQFMGTYYSAELVLIQRAGPAAEGFTVTYHNPYWYDTLVPAVDEMRKFRQRKGRDSSYRPTYYMGSLAVALGVAEAMRRAAQAGKLTRAGVVEYLEKIGDYNAMGLVRGYQFVNHRIPYTKLYRASVKDGRFNAITDWLKLAEGHHHHHH | soluble |
| MGSDKIHHHHHHMLQYRSSKMISMEIVEFKWLKFLDRYRSMAKHNLSNSGMPEPDLRSMGIDTRYESYLNEMVDLDAALRDTVARRYGVDRDNVIITNGGTEAIFLASAFISASSEVIAVPSPEYEPIFIVPESLDRRVRRVKLEKIGQAEKNSESLALSLPNNPTGKYGDIADLVRDAGRTYRYVYIDETFHDFTDDRGSSLYDGSKNLIVSNTMTKFYGLSSLRVGWIVSDKENIDAIRRIKDLTTINNARFSLFLARQAIEKWDRFRERTHSIVRKNADIARKELSDFGFYSDEYEGAPFMFVGDGRFDSEMMASKAISGYGVLVAPGSYFGLDGYLRVCLTALDAREDIAAFREFAEKELGK | not soluble |
| SLSSPGDIPAEDFADHVRKNERDSNCGFADEYQQLSLVGHSQSQMVASASENNAKNRYRNVLPYDWSRVPLKPIHEEPGSDYINASFMPGLWSPQEFIATQGPLPQTVGDFWRLVWEQQSHTLVMLTNCMEAGRVKCEHYWPLDSQPCTHGHLRVTLVGEEVMENWTVRELLLLQVEEQKTLSVRQFHYQAWPDHGVPSSPDTLLAFWRMLRQWLDQTMEGGPPIVHCSAGVGRTGTLIALDVLLRQLQSEGLLGPFSFVRKMRESRPLMVQTEAQYVFLHQCICGSSNSQPRPQPRRKSRMRMSKTSSTRTWPPSRPTSWRSK | soluble |
| MGSDKIHHHHHHMQFGNHPYYANELMLSLDEASGMVGEDARVAEFIRPLYGSRESISGTPRTCLWITDENLALAQEIPAVWARVEKVRKDRKTKTKDVQAKKLVETPWRFRDQYEAESSLLVVPIVSSENRPYLPVVLLSKEAIVHNKAFALYDAPLWNFALIVSKMHLVWVAAVCVRLEMRYSYSNTLGWNTFPVPTLTEQNKADLTRCAEDILLARESHYPATIADLYGPDNMPDDLLRAHERNDEVLERIYIGRRFRNDTERLEKLFDLYTKMTAGQGKPKKKAKK | not soluble |
| HRPEGLEQLEAQTNFTKRELQVLYRGFKNECPSGVVNEETFKQIYAQFFPHGDASTYAHYLFNAFDTTQTGSVKFEDFVTALSILLRGTVHEKLRWTFNLYDINKDGYINKEEMMDIVKAIYDMMGKYTYPVLKEDTPRQHVDVFFQKMDKNKDGIVTLDEFLESCQEDDNIMRSLQLFQNVM | soluble |
| MAGAAAAVAAGAAAGAAAAAVSVAAPGRASAPPPPPPVYCVCRQPYDVNRFMIECDICKDWFHGSCVGVEEHHAVDIDLYHCPNCAVLHGSSLMKKRRNWHRHDYTEIDDGSKPVQAGTRTFIKELRSRVFPSADEIIIKMHGSQLTQRYLEKHGFDVPIMVPKLDDLGLRLPSPTFSVMDVERYVGGDKVIDVIDVARQADSKMTLHNYVKYFMNPNRPKVLNVISLEFSDTKMSELVEVPDIAKKLSWVENYWPDDSVFPKPFVQKYCLMGVQDSYTDFHIDFGGTSVWYHVLWGEKIFYLIKPTDENLARYESWSSSVTQSEVFFGDKVDKCYKCVVKQGHTLFVPTGWIHAVLTSQDCMAFGGNFLHNLNIGMQLRCYEMEKRLKTPDLFKFPFFEAICWFVAKNLLETLKELREDGFQPQTYLVQGVKALHTALKLWMKKELVSEHAFEIPDNVRPGHLIKELSKVIRAIEEENGKPVKSQGI | soluble |
| MHLHISSIPHRNSNNSKGGVLDATGPMLSAKRGALLLQAYHRPGEVISYKAGDYHLVPKKFTVGKRIAVRSYLDRNRTELSDRTFMPQKNWFRPYDLQDGCFDRDHERLSYRFYNLETKVIWKAFDTPELIGMLLHDETVKGNSGMYAPDMLDAALHYTREARYWRCIGITKPFYDRNTLRAHCWEDNGLQVGTLVMSQAMRHALMDLERAVRRKELGLEPNYLWDRWGPIGFIDGARADYLPRFEHNPYVDPDGVDVTEIDVLPFNTHEQIRERYRDFIEPDTAPFEEVFRSPSHGSLTTLADIPNASVVALYKDLKLKAGTPVAGDAVELAPADVRTLFYLSANPEWRAVADGKASWEEVVDAMQPVQAELDEKIDAARLLQNTRHNAERVRAFFEEKCGFHDFMYTPDKTITAAVLCYLTELRRICTETAWGAALAKCLTDMERVQGMGRDAFLVYRHIEDAILDKKRRLWAGRFAGESHEESTLDYLLENFGRRAERPRNVGTTGVEFDREQEPIGRQVQRRVLDSDKANKLAEIRRSRGKMWSKKRSVFDALHEKQLQNFNYGVH | soluble |
